Experimental data published in patent publication US20260274985A1 (MYTHIC THERAPEUTICS, published 2026).
Values belong to the binder of their own block, whether it stands above or below them.

Tests used:
[1] = target: T1, Human TROP2 Protein, His Tag (Acro Biosystems) (human, UniProt P09758 27-274); assay: BLI (Octet), antibody on anti-human Fc sensor, 50 nM human TROP2-His, dissociation at pH 7.4 or 5.4; grade 2 = No change vs parent
T1 construct: Bought protein; also called TACSTD2; not shown: His tag
T1 sequence: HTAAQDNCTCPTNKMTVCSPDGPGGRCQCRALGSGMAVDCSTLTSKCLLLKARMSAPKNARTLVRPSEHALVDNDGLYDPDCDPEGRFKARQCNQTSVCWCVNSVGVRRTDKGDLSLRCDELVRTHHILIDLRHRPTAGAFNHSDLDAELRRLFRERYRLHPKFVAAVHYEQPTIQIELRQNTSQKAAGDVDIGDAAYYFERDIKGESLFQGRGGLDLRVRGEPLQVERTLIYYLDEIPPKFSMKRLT

[2] = target: T1, Human TROP2 Protein, His Tag (Acro …); assay: BLI (Octet), antibody on anti-human Fc sensor, 50 nM human TROP2-His, dissociation at pH 7.4 or 5.4; grade 1 = pH dependent
[3] = target: T2, Human TROP2 Protein, His Tag (Acro Biosystems) (human, UniProt P09758 27-274); assay: BLI (Octet), Ab on anti-human Fc sensor, 50 nM TROP2-His; 2 = No change vs parent
T2 construct: Bought protein; not shown: His tag
T2 sequence (looked up): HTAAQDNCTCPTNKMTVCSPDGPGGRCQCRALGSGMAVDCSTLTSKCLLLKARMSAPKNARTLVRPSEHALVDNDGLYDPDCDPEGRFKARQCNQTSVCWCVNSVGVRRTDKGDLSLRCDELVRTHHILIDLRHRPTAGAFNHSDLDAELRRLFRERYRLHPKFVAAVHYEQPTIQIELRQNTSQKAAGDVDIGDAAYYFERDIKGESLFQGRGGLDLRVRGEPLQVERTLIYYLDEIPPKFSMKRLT
Experimental: The resulting diluted supernatants were then captured on an anti-human Fc sensor (Forte Bio). A baseline was established using 1×PBST (50 mM Potassium Phosphate Buffer+150 mM NaCl+0.05% Tween 20) pH 7.4, and the sensor was associated with 50 nM of TROP2 (Human TROP2 Protein, His Tag, Acro Biosystems) in 1×PBST pH 7.4 for 120 sec to generate an association curve. In the dissociation phase, the antibody-antigen complex on the sensor was exposed to 1×PBST pH 7.4 or pH 5.4, for 300 sec. Association and dissociation phase curves were examined for the starting ABPC antibody (with no substitutions) and each corresponding antibody variant at pH 5.4 and pH 7.4 to inform on two criteria: a) enhanced dissociation (i.e., higher koff values) at pH 5.4 due to histidine or alanine substitution compared to the starting ABPC, (with no substitutions), and b) reduced dissociation at pH 7.4 (i.e., lower koff values) compared to pH 5.4 in the antibody variant itself and with the starting ABPC (with no substitutions). […] It was also noted that while some mutations obliterated TROP2 binding, others were tolerated with little or n change in TROP2 binding kinetics.
For each such table, the “MYT #” provides an identifier for each antigen binding protein (ABP), and the values from each column (reading along each row) provide characteristics and data associated with each ABP. […]

[4] = target: T3, Human TROP2 Protein, His Tag (Acro Biosystems) (human, UniProt P09758 27-274); assay: Octet BLI, IgG on anti-human Fc sensor, 50 nM TROP2-His; 1 = pH dependent
T3 construct: not shown: His tag
T3 sequence (looked up): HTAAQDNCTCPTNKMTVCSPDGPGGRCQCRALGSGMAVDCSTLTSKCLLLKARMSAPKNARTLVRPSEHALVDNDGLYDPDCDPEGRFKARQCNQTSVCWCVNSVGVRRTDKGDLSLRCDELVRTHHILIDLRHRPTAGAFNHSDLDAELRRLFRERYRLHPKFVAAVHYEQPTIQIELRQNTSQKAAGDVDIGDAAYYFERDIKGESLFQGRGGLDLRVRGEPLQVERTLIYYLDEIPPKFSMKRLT

[5] = target: T3, Human TROP2 Protein, His Tag (Acro …); assay: Octet BLI, IgG on anti-human Fc sensor, 50 nM TROP2-His; 2 = No change vs parent
[6] = target: T3, Human TROP2 Protein, His Tag (Acro …); assay: Octet BLI, IgG on anti-human Fc sensor, 50 nM TROP2-His; 1 = pH dependent; remark: listed apart in the source

B1: MYT12452 (hu7E6SVG variant, LCV substitutions at 94, 101 (Ala at 94)) (antibody, V domains shown)
VH: QVQLQESGPGLVKPSETLSLTCTVSGGSISSYGVHWIRQPPGKGLEWIGVIWTSGVTDYNSALMGRVTISVDTSKNQFSLKLSSVTAADTAVYYCARDGDYDRYTMDYWGQGTLVTVSS
VL: DIVMTQSPDSLAVSLGERATINCRASKSVSTSGYSYMHWYQQKPGQPPKLLIYLASNLESGVPDRFSGSGSGTDFTLTISSLQAEDVAVYYCQASRELPYHFGQGTKLEIK
notes: Full IgG in Expi293 supernatant
- binding result [1]: binds

B2: MYT12470 (hu7E6SVG variant, LCV substitutions at 93, 94, 97 (Ala at 94)) (antibody, V domains shown)
VH: QVQLQESGPGLVKPSETLSLTCTVSGGSISSYGVHWIRQPPGKGLEWIGVIWTSGVTDYNSALMGRVTISVDTSKNQFSLKLSSVTAADTAVYYCARDGDYDRYTMDYWGQGTLVTVSS
VL: DIVMTQSPDSLAVSLGERATINCRASKSVSTSGYSYMHWYQQKPGQPPKLLIYLASNLESGVPDRFSGSGSGTDFTLTISSLQAEDVAVYYCHASRHLPYTFGQGTKLEIK
notes: as for B1
- binding result [2]: binds

B3: MYT11583 (antibody, V domains shown)
VH: QVQLQQSGSELKKPGASVKVSCKASGYTFTNYGMNWVKQAPGQGLKWMGWINTYTHEPTYTDDFKGRFAFSLDTSVSTAYLQISSLKADDTAVYFCARGGFGSSYWYFDVWGQGSLVTVSS
VL: DIQLTQSPSSLSASVGDRVSITCKASQDVSIAVAWYQQKPGKAPKLLIYSASYRYTGVPDRFSGSGSGTDFTLTISSLQPEDFAVYYCQQHYITPLTFGAGTKVEIK
notes: Sacituzumab variant, His at HCV position 56 (H2 07)
- binding result [3]: binds

Next, values leading:

- binding result [4]: binds
B4: MYT12399 (antibody, V domains shown)
VH: QVQLVQSGAEVKKPGASVKVSCKASGYTFTTAGMQWVRQAPGQGLEWMGWINTHSGVPKYAEDFKGRVTISADTSTSTAYLQLSSLKSEDTAVYYCARSGFGSSYWYFDVWGQGTLVTVSS
VL: DIQMTQSPSSLSASVGDRVTITCKASQHVSTAVAWYQQKPGKAPKLLIYSHSYRYTGVPSRFSGSGSGTDFTLTISSLQPEDFAVYYCHQHYITPLTFGQGTKLEIK
notes: datopotamab VL 28, 51, 89 substituted

- binding result [5]: binds
B5: MYT12296 (antibody, V domains shown)
VH: QVQLQQSGSELKKPGASVKVSCKASGYTFTNHGMNWVKQAPGQGLKWMGWINTYTGEPTYTHDFKGRFAFSLDTSVSTAYLQISSLKADDTAVYFCARGGFGSSYWYFDVWGQGSLVTVSS
VL: DIQLTQSPSSLSASVGDRVSITCKASQDVSIAVAWYQQKPGKAPKLLIYSASYRYTGVPDRFSGSGSGTDFTLTISSLQPEDFAVYYCQQHYITPLTFGAGTKVEIK
notes: sacituzumab VH 32, 62 -> H

- binding result [6]: binds
B6: MYT12317 (antibody, V domains shown)
VH: QVQLQQSGSELKKPGASVKVSCKASGYTFTNYGMNWVKQAPGQGLKWMGWINTYTGEPTYTDHFHGRFAFSLDTSVSTAYLQISSLKADDTAVYFCARGGFGSSYWYFDVWGQGSLVTVSS
VL: DIQLTQSPSSLSASVGDRVSITCKASQDVSIAVAWYQQKPGKAPKLLIYSASYRYTGVPDRFSGSGSGTDFTLTISSLQPEDFAVYYCQQHYITPLTFGAGTKVEIK
notes: sacituzumab VH 63, 65 -> H
